The values that follow come from patent US20170204445A1, “IN VIVO SITE-SPECIFIC PROTEIN TAGGING USING ENGINEERED SORTASE VARIANTS” (priority 2016, published 2017).

One data set concerns the target LPETGSW peptide (Staphylococcus aureus, UniProt Q2FV99, G167E). Kind of data set: Transpeptidation of LPETGSW peptide with wild-type SrtA. The conditions noted are these: 15-fold more enzyme (150 μM), 20 hours, 37° C., 25 mM Tris.HCl pH 7.5, 10 mM CaCl2.
The target in a further data set is T1, SrtA7M (Staphylococcus aureus, UniProt Q2FV99, D160N/D165A/E105K/E108Q/G167E/K190E/K196T/P94R).
T1 construct: […]; made in house; host or cells: E. coli
Briefly: In vitro conjugation of purified LPETGG-tagged proteins by SrtA7M (ESI-TOF LC-MS). In kind it is biochemical. The conditions noted are these: 10 μM SrtA7M, 100 mM Azp or propargylamine, 8 hours, 37° C. As for the experimental part: FIG. 3. Transpeptidation of purified proteins. Purified proteins expressed with a C-terminal LPETGG sequence were incubated with 10 μM SrtA7M for 8 hours at 37° C. along with the desired amine. Proteins were then diluted 10-fold with 0.2% formic acid and analyzed by ESI-TOF LC-MS. (A) Maltose binding protein. (B) Sf9 nanobody, and (C) Fibronectin Fn10, all show 80-100% conversion to the desired conjugate.
FIG. 9. Sortase conjugation time course.
FIG. 10. In vitro conjugation of sfGFP derivatives. (A) His-sfGFP-srt and (B) sfGFPHis-srt were incubated with 10 μM SrtA7M and 100 mM Azp or propargylamine for 8 hours at 37° C.
We next determined the ability of SrtA7M to modify purified proteins. We incubated several proteins containing a C terminal LPETGG sequence (srt) with 10 μM enzyme and either 100 mM Azp or propargylamine, followed by quenching with formic acid. […] To define the effective range of reaction conditions, we tested the conjugation of MBP-srt with Azp at different time points and substrate concentrations.
In vitro conjugation of proteins. Purified MBP-srt, His-sfGFP-srt, Nanobody-His-srt, Glutathione-S-transferase-His-srt, Fibronectin-His-srt, and sfGFP-His-srt were labeled after purification in 100 mM ammonium bicarbonate buffer pH 7.8. […]

B1: Wild-type SrtA: wild-type Staphylococcus aureus sortase A Δ59, SEQ ID NO: 26 (protein, listed as Homo sapiens)
chain: MQAKPQIPKDKSKVAGYIEIPDADIKEPVYPGPATPEQLNRGVSFAEENESLDDQNISIAGHTFIDRPNYQFTNLKAAKKGSMVYFKVGNETRKYKMTSIRDVKPTDVEVLDEQKGKDKQLTLITCDDYNEKTGVWEKRKIFVATEVKLEHHHHHH
For the molecule B1, the “conversion of LPETGSW peptide” value with LPETGSW peptide is “modest conversion”.

B2: Fn10-His-srt: engineered fibronectin domain Fn10 with His tag and C terminal LPETGG, SEQ ID NO: 29 (protein, listed as Homo sapiens)
chain: MLVPRGSSDVPRDLEVVAATPTSLLISWDAPAVTVRYYRITYGETGGNSPVQEFTVPGSKSTATISGLKPGVDYTITVYAVTPRGDWNEGSKPISINYRTGKKGKGGHHHHHHLPETGG
modifications: His tag, LPETGG
With B2, in the data set with SrtA7M, the “conversion / modification of the protein with the amine” value is on record as “complete conversion”.
